B1: antibody 3807 (antibody, V domains shown)
VH: EVQLQQSGAELVRPGTSVKLSCIASGFNIKDDYMHWVKQRPEQGLEWIGWIDPENGDTEYASKFQGKATITADTSANTAYLQFSSLTSEDTAVYYCLYGNFYYFDYWGQGTTLTVSS
VL: QIVLTQSPAIMSASPGEKVTMTCSASSSINYMHWYQQKPGTSPKRWIYDTSKLASGVPARFSGSGSGTSYSLTISSMEAEDAATYYCHQRSFSPLTFGAGTKLELK
notes: Murine variable regions; also called murine antibody 3807; hybridoma clone 3807
B2: antibody 0012 (antibody, V domains shown)
VH: QVQLQQSGAEVKKPGASVKVSCKVSGYTLTELSMHWVRQAPGKGLEWMGGFDPEDGETIYAQKFQGRVTMTEDTSTDTAYMELSSLRSEDTAVYYCATDPHRTWWRYFDWLYPRGMDVWGQGTTVTVSS
VL: EIVMTQSPGTLSLSPGERATLSCRASQTVGKNYLAWYQQKPGQAPRLLIYGASNRATGIPDRFSGSGSGTDFTLTISRLEPEDFGTYYCQQFRSYPYTFGQGTKVEIK
B3: antibody 1209 (0012-K3) (antibody, human IgG1, kappa, V domains shown)
VH: B2 VH with E31S, L32I, S33L, E54Q, I59V
VL: EIVMTQSPGTLSLSPGERATLSCRASQTVGKNYLAWYQQKPGQAPRLLIYEASVRALGIPDRFSGSGSGTDFTLTISRLEPEDFGTYYCQQFRSYPYTFGQGTKVEIKR
B4: antibody 3871 (antibody, V domains shown)
VH: QVQLVQSGAEVKKPGSSVKVSCKASGFNIKDDYMHWVRQAPGQGLEWMGWIDPENGDTEYASKFQGRVTITADESTSTAYMELSSLRSEDTAVYYCLYGNFYYFDYWGQGTTVTVSS
VL: EIVLTQSPATLSLSPGERATLSCSASSSINYMHWYQQKPGQAPKRWIYDTSKLASGVPARFSGSGSGTDFTLTISSLEPEDFAVYYCHQRSFSPLTFGQGTKLEIK
notes: Humanized from 3807: VH is 3807-VH1 and VL is 3807-VL3
B5: antibody 3882 (antibody, human IgG4 S228P, kappa, V domains shown)
VH: B4 VH with F27G, N28T, I29F, K30S
VL: EIVLTQSPATLSLSPGERATLSCSASSSINYMHWYQQKPGQAPKRWIYDTSKLASGVPARFSGSGSGTDFTLTISSLEPEDFAVYYCHQRSFSPLTFGQGTKLEIKR
B6: BAY1213790 (antibody, human IgG1, kappa, V domains shown)
VH: EVQLLESGGGLVQPGGSLRLSCAASGFTFSQYGMDWVRQAPGKGLEWVSGIGPSGGSTVYADSVKGRFTISRDNSKNTLYLQMNSLRAEDTAVYYCTRGGPYYYYGMDVWGQGTTVTVSS
VL: DIQMTQSPSSLSASVGDRVTITCQASQDISNYLNWYQQKPGKAPKLLIYDASNLETGVPSRFSGSGSGTDFTFTISSLQPEDIATYYCQQADSFPVTFGGGTKVEIKR
B7: antibody 3875 (antibody, V domains shown)
VH: B4 VH with E74T, T76A, S77N
VL: B4 VL
notes: Humanized from 3807: VH is 3807-VH5 and VL is 3807-VL3
B8: antibody 1267 (Kg3g) (antibody, human IgG1, kappa, V domains shown)
VH: B2 VH with Q5V, E31S, L32I, S33L, E54Q, I59V
VL: B3 VL with M4L, G85A, T86V
notes: Heavy chain is VH + human CH1 + IgG1 Fc

As usually defined, the Kd is the concentration at which binding is half-saturated. As a reminder, the koff is the first-order rate constant of dissociation. In general, kon refers to a measure of how fast the partners come together.

Positions count from the first letter of the chain named.

The first assay concerns the target monkey FXI (in monkey plasma) (monkey). The assay is described as follows: cell-based or functional assay.
Turning to B1, the “aPTT1.5 (concentration prolonging aPTT by 50% relative to PBS), monkey blood” value was found to be 1 µg/mL.

On to B2, for which the “aPTT1.5 (concentration prolonging aPTT by 50% relative to PBS), monkey blood” value is greater than 8.33 µg/mL.

In the case of B3, the “aPTT1.5 (concentration prolonging aPTT by 50% relative to PBS), monkey blood” value was determined as 4.08 µg/mL.

In the case of B4, the “aPTT1.5 (concentration prolonging aPTT by 50% relative to PBS), monkey blood” value is 1.12 µg/mL.

As for B5, the “aPTT1.5 (concentration prolonging aPTT by 50% relative to PBS), monkey blood” value was found to be 1.14 µg/mL.

As for B6, the “aPTT1.5 (concentration prolonging aPTT by 50% relative to PBS), monkey blood” value stood at 2.73 µg/mL.

Another assay addresses T1, Human FXI protein (coagulation factor XI) (human, UniProt P03951 19-625). Description: cell-based or functional assay.
As for B1, the “aPTT1.5 (concentration prolonging aPTT by 50% relative to PBS), human blood” value amounted to 1.33 µg/mL.

B2: the “aPTT1.5 (concentration prolonging aPTT by 50% relative to PBS), human blood” value was determined as 14.6 µg/mL.

For B3, the “aPTT1.5 (concentration prolonging aPTT by 50% relative to PBS), human blood” value is 4.68 µg/mL.

For B4, the “aPTT1.5 (concentration prolonging aPTT by 50% relative to PBS), human blood” value amounted to 0.88 µg/mL.

Turning to B5, the “aPTT1.5 (concentration prolonging aPTT by 50% relative to PBS), human blood” value amounted to 0.63 µg/mL.

With B7, the “aPTT1.5 (concentration prolonging aPTT by 50% relative to PBS), human blood” value is 0.87 µg/mL.

B6: the “aPTT1.5 (concentration prolonging aPTT by 50% relative to PBS), human blood” value was 2.15 µg/mL.

In another assay the target is T2, Human FXIa protein (activated coagulation factor XI) (human, UniProt P03951 19-625).
T2 construct: Bought from Enzyme Research Laboratories (HFXIa 1111a); also called factor XIa; HFXIa 1111a
Description: SPR (Biacore T200), antibody captured on Protein A chip, FXIa as analyte, 1:1 Langmuir fit. An excerpt: (§1) A certain amount of antibodies to be tested was affinity-captured using a Protein A biosensor chip (Cat. #29127556, GE), then FXI/FXIa at a series of concentration gradients flowed through the surface of the chip. The reaction signals were detected in real time using a Biacore instrument (Biacore T200, GE) to obtain association and dissociation curves. After dissociation was completed for each cycle, the biochip was washed and regenerated with a regeneration solution prepared in a human antibody capture kit or a glycine-hydrochloric acid regeneration solution (pH 1.5, Cat. #BR-1003-54, GE). The buffer used in the experiment was HBS-EP+10× buffer (Cat. #BR-1006-69, GE) diluted to 1× (pH 7.4) with double distilled water.
(§2) The data obtained from the experiment were fitted using BIAevaluation version 4.1, GE software using a (1:1) Langmuir model to obtain affinity values. The test results of part of antibodies are shown in FIG. 1A, FIG. 1B and Table 6 below.
In general terms: Surface plasmon resonance follows binding to a sensor surface in real time, without labels.
Turning to B1, the equilibrium dissociation constant (Kd) was 0.148 nM, the off-rate (koff) is 0.000235 s⁻¹ and the kon came to 1.59e+06 M⁻¹ s⁻¹.

Turning to B8, binding was put at a Kd of 0.0222 nM, the koff was found to be 1.79e-05 s⁻¹ and the on-rate constant (kon) was determined as 873000 M⁻¹ s⁻¹.

For the molecule B4, the Kd turned out to be 0.57 nM, the koff was found to be 0.000708 s⁻¹ and the kon came out at 1.24e+06 M⁻¹ s⁻¹.

Consider B5, for which the equilibrium dissociation constant (Kd) was 0.364 nM, the off-rate constant (koff) was 0.000387 s⁻¹ and the on-rate (kon) came out at 1.06e+06 M⁻¹ s⁻¹.

B7 yielded a Kd of 0.22 nM, a dissociation rate constant (koff) of 0.000336 s⁻¹ and an on-rate (kon) of 1.53e+06 M⁻¹ s⁻¹.

For another assay, the target named is T1, Human FXI protein (coagulation factor …). Description: SPR (Biacore T200), antibody captured on Protein A chip, FXI as analyte, 1:1 Langmuir fit.
Text: as §1, §2
With B4, binding was characterised by a dissociation constant (Kd) of 0.02 nM, the koff stood at 2.66e-05 s⁻¹ and the kon was 1.32e+06 M⁻¹ s⁻¹.

For B5, the Kd came to 0.0296 nM, the off-rate (koff) turned out to be 5.85e-05 s⁻¹ and the kon was determined as 1.97e+06 M⁻¹ s⁻¹.

Turning to B7, the Kd came to 0.0378 nM, the off-rate constant (koff) is 3.02e-05 s⁻¹ and the kon was 799000 M⁻¹ s⁻¹.

These data come from US20230220111A1 (BEIJING TUO JIE BIOPHARMACEUTICAL, published 2023).
